B1: Ankyrin-1, residues 1405 to 1484; numbered along this chain, P16157 (parent)
chain: MKMAVISEHLGLSWAELARELQFSVEDINRIRVENPNSLLEQSVALLNLWVIREGQNANMENLYTALQSIDRGEIVNMLE

± gives the uncertainty stated by the source.

In the data set the parent is B1. The data set can be described thus: abundance fitness (aPCA) (normalised: wild type 0, dead -1); higher = more abundant; growth selection in yeast, the domain comes from the species named. The settings on record: Homo sapiens.
For L46M, the abundance fitness is -0.201 ± 0.039.
The value for L46F was -0.204 ± 0.14; that for L46E was -0.987 ± 0.49; that for L46C was -0.138 ± 0.2.
The value for R32Q was -0.132 ± 0.066; that for R32F was 0.069 ± 0.098.
Under I52G stands -0.351 ± 0.35; under N35C, -0.355 ± 0.22.
As to N35K, the abundance fitness was -0.064 ± 0.16.
Under N35L stands -0.491 ± 0.12; under E16A, -0.041 ± 0.059; under E16N, 0.161 ± 0.26.
Under V25T stands -0.159 ± 0.079; under V25H, 0.159 ± 0.085.
The value for V25I was -0.143 ± 0.21; that for V25K was -0.005 ± 0.11; that for Q22R was -0.093 ± 0.051.
For Q22M, the abundance fitness is -0.008 ± 0.048.
In the case of Q22F, the abundance fitness is -0.092 ± 0.15.
The value for Q22E was -0.043 ± 0.071; that for Q22H was -0.413 ± 0.19; that for Q22T was -0.044 ± 0.072.
Under Q22C stands 0.016 ± 0.078.
The value for E34W was -0.559 ± 0.28; that for E34Y was -0.565 ± 0.38.
As to E34F, the abundance fitness is -0.185 ± 0.16.
As to L49T, the abundance fitness is -0.216 ± 0.092.
Under L49N stands -0.256 ± 0.12.
The value for I31D was -0.918 ± 0.32; that for I31P was -0.639 ± 0.29; that for I31V was -0.192 ± 0.057.
Under M78V stands 0.043 ± 0.061; under M78N, -0.01 ± 0.15.
On to M78C, for which the abundance fitness is 0.065 ± 0.085.
The value for M78T was 0.085 ± 0.091; that for M78E was -0.236 ± 0.14.
Under S38Y stands -0.749 ± 0.25.
Under S38L stands -0.781 ± 0.16.
In the case of S38A, the abundance fitness was -0.258 ± 0.081.
The value for T65E was 0.015 ± 0.074; that for T65H was -0.05 ± 0.1; that for T65V was -0.153 ± 0.053.
The value for T65M was -0.15 ± 0.076.
The value for T65A was -0.029 ± 0.052; that for V33P was -0.764 ± 0.24; that for V33K was -0.215 ± 0.14.
For V33T, the abundance fitness was 0.138 ± 0.082.
The value for L12N was 0.139 ± 0.2.
The value for L12A was 0.213 ± 0.085.
Regarding L12T, the abundance fitness is 0.063 ± 0.18.
Take E54H: the abundance fitness is -0.294 ± 0.17.
The value for E54W was -0.62 ± 0.11.
Under E54N stands -0.043 ± 0.091; under E54Y, -0.357 ± 0.15.
The value for I28Y was -0.485 ± 0.2; that for I28V was -0.1 ± 0.051.
For I28G, the abundance fitness was -0.891 ± 0.11.
The value for I28R was -0.571 ± 0.071.
Under I28A stands -0.522 ± 0.066.
The value for I28P was -0.58 ± 0.14; that for F23W was -0.964 ± 0.17; that for F23K was -0.786 ± 0.18.
For F23R, the abundance fitness was -0.833 ± 0.085.
The value for F23P was -0.918 ± 0.21; that for N57V was -0.068 ± 0.095.
The value for N57T was -0.154 ± 0.16; that for N57I was -0.636 ± 0.47; that for N57G was 0.017 ± 0.058.
As for N57L, the abundance fitness was -0.108 ± 0.066.
As to N57P, the abundance fitness is -0.061 ± 0.12.
Under S13I stands -0.815 ± 0.3; under S13D, 0.155 ± 0.089.
As to S13G, the abundance fitness is -0.237 ± 0.062.
The value for S13M was -0.441 ± 0.2.
The value for S13L was -0.417 ± 0.12.
Under L39G stands -0.423 ± 0.15; under L39I, -0.41 ± 0.43; under L39C, 0.066 ± 0.14.
For L39W, the abundance fitness was -0.262 ± 0.09.
The value for L39P was 0.058 ± 0.12; that for L39R was -0.554 ± 0.074.
Under L39M stands -0.075 ± 0.15; under G11I, -0.726 ± 0.23.
Under G11Q stands -0.276 ± 0.17; under N48L, -0.835 ± 0.091.
As for N48S, the abundance fitness is -0.277 ± 0.07.
The value for N48Q was -0.205 ± 0.15.
For N48K, the abundance fitness is 0.098 ± 0.081.
Under N48V stands -0.474 ± 0.094.
The value for L17C was -0.81 ± 0.2; that for L17S was -0.853 ± 0.14.
The value for L17G was -0.972 ± 0.12.
Regarding L17A, the abundance fitness is -0.607 ± 0.12.
Turning to L17Y, the abundance fitness is -0.462 ± 0.11.
The value for R72A was -0.632 ± 0.1; that for R72P was -0.226 ± 0.13; that for R72E was -0.647 ± 0.11.
For R72H, the abundance fitness is -0.15 ± 0.14.
For the variant R72S, the abundance fitness is -0.57 ± 0.11.
The value for R19C was -0.17 ± 0.077.
Under R19I stands -0.489 ± 0.17.
The value for R19M was 0.003 ± 0.1.
Take R19H: the abundance fitness worked out at 0.064 ± 0.18.
The value for R19G was -0.229 ± 0.042.
For R19Q, the abundance fitness is -0.052 ± 0.12.
The value for L79V was 0.132 ± 0.049; that for L79C was 0.045 ± 0.13; that for L79E was -0.335 ± 0.11.
Under L79K stands -0.429 ± 0.21; under L79P, -0.3 ± 0.12.
Under L79T stands -0.202 ± 0.096.
On to L79M, for which the abundance fitness is 0.039 ± 0.082.
The value for L79R was -0.528 ± 0.082.
The value for L79H was -0.199 ± 0.15.
The value for G73S was -0.192 ± 0.04; that for G73L was -0.399 ± 0.036; that for G73Q was -0.141 ± 0.066.
As for G73C, the abundance fitness is -0.272 ± 0.096.
Under G73A stands -0.17 ± 0.038; under G73V, -0.172 ± 0.038; under N29P, -0.952 ± 0.22.
The value for N29I was -0.123 ± 0.16; that for N29F was -0.376 ± 0.14; that for N29Q was -0.041 ± 0.077.
With N29L, the abundance fitness is -0.127 ± 0.059.
Under N29V stands -0.213 ± 0.054.
The value for N29G was -0.133 ± 0.049; that for N29K was 0.021 ± 0.1.
On to M1V, for which the abundance fitness was 0 ± 0.27.
For the variant A4T, the abundance fitness is -0.029 ± 0.088.
As for A4Q, the abundance fitness is -0.041 ± 0.11.
The value for A4R was -0.071 ± 0.076.
Consider A4K, for which the abundance fitness is 0.148 ± 0.18.
The value for P36I was -0.459 ± 0.21.
On to P36D, for which the abundance fitness is -0.165 ± 0.14.
Under M60T stands -0.286 ± 0.19.
The value for M60N was -0.723 ± 0.47.
The value for M60W was 0.055 ± 0.18; that for M60S was -0.28 ± 0.14; that for V51R was 0.065 ± 0.06.
In the case of V51K, the abundance fitness was 0.156 ± 0.1.
The value for V51S was 0.128 ± 0.051.
The value for A15F was -0.039 ± 0.058.
The value for A15Y was 0.128 ± 0.17.
Regarding A15S, the abundance fitness is 0.037 ± 0.06.
Turning to A15D, the abundance fitness is -0.209 ± 0.11.
Under A15E stands 0.04 ± 0.076.
The value for E20N was -0.087 ± 0.14.
Under E20L stands -0.411 ± 0.057; under E20F, -0.345 ± 0.093; under E61S, -0.284 ± 0.16.
Turning to E61G, the abundance fitness was -0.414 ± 0.25.
As for L63C, the abundance fitness was -0.748 ± 0.3.
The value for L63M was -0.027 ± 0.087.
The value for L63D was -0.763 ± 0.38; that for L63W was -0.693 ± 0.22; that for L63A was -0.79 ± 0.2.
As to L63P, the abundance fitness is -0.805 ± 0.2.
For the variant L63T, the abundance fitness was -0.493 ± 0.15.
The value for L63I was 0.037 ± 0.2.
The value for V76A was -0.423 ± 0.08; that for V76C was -0.051 ± 0.095.
Turning to V76L, the abundance fitness is -0.054 ± 0.06.
The value for V76T was -0.244 ± 0.067; that for L10I was -0.172 ± 0.15; that for L10S was -0.852 ± 0.22.
Take L10W: the abundance fitness is -0.872 ± 0.23.
